Source: patent US20220112276A1 (Janssen / Centocor, published 2022)
Where a chain is given by its changes, count along the chain named.

B1: 01B04R2 His-tagged VHH (VHH)
VHH: EVQLVESGGGLVQAGGSLRLSCAASGRTFTSYTMGWFRQAPGKEREFVAAIKWNGGSTYYADSVKGRFTISRDNAKNTVYLQMNSLKPEDTAVYYCAADGDPYFSPTDGIVWHAPHQSEYDYWGQGTLVTVSS
B2: 01D08R3 His-tagged VHH (VHH)
VHH: QVQLVESGGGLVQAGDSLRLSCAASGRTSSLYNMGWFRQAPGQEREFVAAIHWGGGRTYYADSVKGRFTISRDNAKNTVYLQMNSLEPGDTANYYCAARRAPELLDDYKQKPEEIGAYHYWGQGTQVTVSS
B3: 03H01R3 His-tagged VHH (VHH)
VHH: B2 VHH with Q1E, D16G, L31I, A117T
B4: 01A06R3LS His-tagged VHH (VHH)
VHH: EVQLVESGGGVVQAEDSLRLSCAASGLPFSSSRMGWFRQAPGKEREFVAAIGWSGRSTYKYYADSVKGRFTVSGDNAKKTLDLQMKDLKPEDTAVYYCAAHPDYYGDPRTSGAYRYWGQGTQVTVSS
B5: 01B07R3L His-tagged VHH (VHH)
VHH: B4 VHH with A40V, K60R, A63D, K79N, D87G, H101D, D103N, P108V, A113T, R115Q
B6: 03D12R3 His-tagged VHH (VHH)
VHH: QVQLVESGGGLVQAGGSLRLSCAASGRTFSSYAMGWFRQAPGKEREFAAVITWNGGSTHYADSVKGRFTISRDNAKNTVYLQMNSLKPEDTAVYYCAADPMNSPYWGQGTQVTVSS
B7: 01A02R3 His-tagged VHH (VHH)
VHH: EVQLVESGGGLVQSGGSLRLSCAASGRTFDQFTVGWFRQAPGKEREFVTAIRWSGSTTYRYYADSVKGRFTISRDNARNTVDLQMNSLKPEDSAVYYCAGQMSQWSDPRGDDYDSWGQGTLVTVSS
B8: 01H05R3 His-tagged VHH (VHH)
VHH: QVQLVESGGGLVQAGGSLRLSCAASGRSLGFDTYGMAWFRQAPGKEREFVASIDWNGGSTYYADSMKGRFTISRDNAKNTVNLRMNSLKPDDTAVYYCAAARYYTSSTYFPANYWGQGTQVTVSS
B9: 03H05R3 His-tagged VHH (VHH)
VHH: QVQLVESGGGLVQAGGSLSLSCAASGRSLSFDTYAMSWFRQAPGKEREFVASIDWNGGSTSYADSMKGRFTISRDNAKNTVNLRIRSLKPDDTAVYFCASARYYIGGTYFPANYWGQGTQVTVSS
B10: 03C10R3 His-tagged VHH (VHH)
VHH: B8 VHH with A14R, G35A, A37G, S59N, M66V, V95A, S107G, Q117R, Q120L
B11: 03F01R3 His-tagged VHH (VHH)
VHH: QVQLVESGGGLVQAGESLRLSCAASGDVFDIGTMAWYRQPPGKQRELVASITMGGSTDVADSAKGRFTISRDNAKNTVYLHMDSLKPEDTAVYYCNAQFFWPKRHDYWGQGTQVTVSS
B12: 03D01R3 His-tagged VHH (VHH)
VHH: EVQLVESGGGLVQPGGSLRLSCAASGFTFRTYYMGWFRQAPGKEREFVGVTRSSDDVTYYADSVKGRFTISRDNAKNTVYLQMSRLKPEDTAVYYCAAKPVPITRYSFPQIGEEYDYWGQGTLVTVSS
B13: 01C09R3 His-tagged VHH (VHH)
VHH: B12 VHH with P14A
B14: 02B09R3 His-tagged VHH (VHH)
VHH: B12 VHH with Q39R, N77D
B15: 03D02R3 His-tagged VHH (VHH)
VHH: EVQLVESGGGLAQAGGSLRLSCTASGTISKIDVMAWYRQTPGNERELVARIFSNDVTHYVDSAKGRFTLSRAQDKNTVDLQMNSLEPDDAAVYYCNAQIWSDMRGRMDTYWGQGTLVTVSS
B16: 01D05R2LS His-tagged VHH (VHH)
VHH: EVQLVESGGGLVQTGGSLRLSCAASGRTFSPYAMGWFRQAPGKEREFVAAIRWSGATTYKYVGDSVQGRFTISRDAAGNTVYLQMNSVKPEDTAVYYCAADRVPKDISIDPRNPKDWDYWGKGTLVTVSS
B17: 01H01R2LS His-tagged VHH (VHH)
VHH: B16 VHH with D64G, L125Q
B18: 01B06R2LS His-tagged VHH (VHH)
VHH: B16 VHH with E1Q
B19: 01B04R3L His-tagged VHH (VHH)
VHH: EVQLVESGGGLVQAGDSLRLSCAASGRTFTTYVMGWFRQAPGKEREFVATIAWSGSTNYKYYADSVKGRFTISRDNAKNTVYLRMNSLKPEDTAVYYCAASTVLTDPRRLNEYANWGQGTLVTVSS
B20: 03D09R3 His-tagged VHH (VHH)
VHH: QVQLVESGGGLVQAGGSLRLSCAASGRTVSSVAMGWFRQAPGKEREFVATISWTGGSTYYADSVKGRFTISRDNAKNTAYLQMNSLKPEDTAVYYCAAGYPADPIALMTLRYEYDYWGQGTLVTVSS
B21: 01B07R2L His-tagged VHH (VHH)
VHH: EVQLVESGGGLVQAGGSLRLSCAASGRTFSSDAVGWFRQAPGKEREFVAHIHWSGDFTTYYYYGDFVKGRFTISRGTAKNTVYLQMNSLKPEDTAVYYCAAPKGAIGDPRSTREYDYWGQGTLVTVSS
B22: 03G05R3 His-tagged VHH (VHH)
VHH: EVQLVESGGGLVQAGDSLRLSCAASGRALSFNTYAMAWFRQAPGKEREFVASITYNGGSTYYADSVKGRFTVTRDNGKNTVTLRMNSLKPDDTAVYYCASAQYWRSGTSFPANYWGQGTQVTVSS
B23: 03G07R3 His-tagged VHH (VHH)
VHH: B22 VHH with A28T, N32D, T54D, Y61D, G77A, Q102R, W104Y, A112V
B24: 01F04R3 His-tagged VHH (VHH)
VHH: B22 VHH with E1Q, K67R, N76S, Q120L
B25: 01D06R2 His-tagged VHH (VHH)
VHH: QVQLVESGGGLVQAGDSLRLSCAASGRTLSFDTYAMAWFRQAPGKEREFVASIDWNGVNTYYADSVKGRFTVTRDNTKNTVTLRMNSLKTDDTAVYYCAAAQYYRSGTSFPANSWGQGTQVTVSS
B26: 01C04R3 His-tagged VHH (VHH)
VHH: B22 VHH with E1Q, N79D, Q120L
B27: 01B02R2L His-tagged VHH (VHH)
VHH: EVQLVESGGGLVQAGGSLKLACAASGLTFSSYRMGWFRQAPGKEREFVAAIDWNGRGTYYRYYADSVKGRFTISRDNAKNTMCLQMNSLKPEDTAVYYSAIDSRTSIDPRTSGHYRYWGQGTLVTVSS
B28: 01C09R3LS His-tagged VHH (VHH)
VHH: EVQLVESGGGLVQAGGSLRLSCAASGRTINTYVMGWFRQAPGKEREFVARIDWSGSSTDYADSVKGRFTISRDNAKNTVYLQMNSLKPEDTAVYYCAGSAYYSGYVTHRDFGSWGQGTQVTVSS
B29: 01C05R3LS His-tagged VHH (VHH)
VHH: B28 VHH with Q119L
B30: 01F11R2 His-tagged VHH (VHH)
VHH: B28 VHH with I29L, S57T
B31: 01B12R3LS His-tagged VHH (VHH)
VHH: B28 VHH with T31G, N77T
B32: 01G10R3LS His-tagged VHH (VHH)
VHH: B28 VHH with M34T
B33: 01E09R3LS His-tagged VHH (VHH)
VHH: B28 VHH with I70T, S85G, Q119L
B34: 01B10R3LS His-tagged VHH (VHH)
VHH: B28 VHH with E1Q, N30Y, T31G
B35: 01F03R3LS His-tagged VHH (VHH)
VHH: B28 VHH with T31G, K43E, N77I, Q119L
B36: 01G09R2 His-tagged VHH (VHH)
VHH: B28 VHH with V64A, Q119L
B37: 01H11R3LS His-tagged VHH (VHH)
VHH: B28 VHH with E1Q, T31G, N77T, M83T
B38: 01D07R3LS His-tagged VHH (VHH)
VHH: B28 VHH with E1Q, Q119L
B39: 01B08R2 His-tagged VHH (VHH)
VHH: EVQLVESGGRLVQAGGSLRLSCAASGLTRSDYAMGWFRQAPGKEREFVATLKWSEGSRFMYRAEDVKGRFTISSGAAKTTVWLDMDALNPEDTAVYYCAAGFNVGFVRRASEYNFWGQGTLVTVSS

These binders were tested against T1, recombinant human pIgR (hpIgR) (human, UniProt P01833 19-638, limits assumed) (assay: ELISA, periplasmic VHH, BSA subtracted).
T1 construct: probably the ECD
T1 sequence (P01833 19-638 limits assumed): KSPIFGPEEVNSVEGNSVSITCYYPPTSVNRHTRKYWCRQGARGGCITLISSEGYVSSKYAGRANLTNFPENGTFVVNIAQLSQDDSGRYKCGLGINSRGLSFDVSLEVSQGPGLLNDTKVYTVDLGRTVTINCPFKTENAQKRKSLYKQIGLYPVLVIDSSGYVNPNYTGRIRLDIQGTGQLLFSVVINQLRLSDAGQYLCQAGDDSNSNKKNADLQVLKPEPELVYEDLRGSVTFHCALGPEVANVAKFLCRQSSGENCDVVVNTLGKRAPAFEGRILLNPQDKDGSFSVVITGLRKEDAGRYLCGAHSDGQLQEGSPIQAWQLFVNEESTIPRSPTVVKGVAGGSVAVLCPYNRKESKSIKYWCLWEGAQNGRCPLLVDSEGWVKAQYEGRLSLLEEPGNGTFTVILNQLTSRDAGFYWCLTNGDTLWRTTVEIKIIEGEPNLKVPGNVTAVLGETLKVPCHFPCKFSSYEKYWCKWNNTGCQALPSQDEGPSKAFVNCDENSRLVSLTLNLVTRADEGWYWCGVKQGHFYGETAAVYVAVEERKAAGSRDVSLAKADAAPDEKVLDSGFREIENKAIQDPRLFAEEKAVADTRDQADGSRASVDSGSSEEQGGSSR
Procedure: Initial Library Screening: After each panning round showing enrichment, 94 individual clones were expressed and tested in an off-phage initial screen for specific binding to mpIgR or hpIgR (respectively depending on the antigen used). Screening of monoclones in an off-phage format was performed by transforming the phagemid pool into a non-amber-suppressor strain of E. coli and picking random colonies. The VHH proteins were recovered in the periplasmic fraction by performing osmotic shock. Periplasmic fractions containing His-tagged nanobodies were tested for binding to hpIgR or mpIgR. Bound nanobody was detected with a polyclonal anti-alpaca VHH domain antibody. Each clone was also tested for non-specific binding to BSA in parallel. The ELISA values obtained on BSA were subtracted from the ELISA values obtained on the respective pIgR antigen.
Repeat Testing of Positive Hits: The hits identified in the initial screen of the phage pools were re-tested for binding to either hpIgR or mpIgR. Periplasmic fractions were prepared again by performing osmotic shock. Periplasmic fractions containing His-tagged nanobodies were tested for binding to mpIgR. In this assay, bound nanobody was detected with an anti-VHH antibody. Each clone was also tested for non-specific binding to BSA in parallel. The ELISA values obtained on BSA were subtracted from the ELISA values obtained on the respective pIgR antigen.
For B1, the “ELISA (OD)” value was 2.16 OD.
With B2 the “ELISA (OD)” value was 2.11 OD.
For B3, the “ELISA (OD)” value was 2.07 OD.
In the case of B4, the “ELISA (OD)” value is reported as 1.95 OD.
For B5, the “ELISA (OD)” value was 2.29 OD.
For B6, the “ELISA (OD)” value was 2.27 OD.
In the case of B7, the “ELISA (OD)” value is reported as 1.98 OD.
In the case of B8, the “ELISA (OD)” value is reported as 1.27 OD.
In the case of B9, the “ELISA (OD)” value is reported as 0.46 OD.
For B10, the “ELISA (OD)” value was 1.77 OD.
In the case of B11, the “ELISA (OD)” value is reported as 1.97 OD.
For B12, the “ELISA (OD)” value was 1.84 OD.
With B13 the “ELISA (OD)” value was 1.29 OD.
B14 was tested, and the “ELISA (OD)” value was 1.13 OD.
With B15 the “ELISA (OD)” value was 2.07 OD.
With B16 the “ELISA (OD)” value was 2.41 OD.
B17 was tested, and the “ELISA (OD)” value was 1.17 OD.
In the case of B18, the “ELISA (OD)” value is reported as 1.9 OD.
B19 was tested, and the “ELISA (OD)” value was 2.12 OD.
For B20, the “ELISA (OD)” value was 1.82 OD.
With B21 the “ELISA (OD)” value was 0.67 OD.
With B22 the “ELISA (OD)” value was 1.92 OD.
In the case of B23, the “ELISA (OD)” value is reported as 1.92 OD.
With B24 the “ELISA (OD)” value was 1.83 OD.
With B25 the “ELISA (OD)” value was 0.5 OD.
With B26 the “ELISA (OD)” value was 2.33 OD.
For B27, the “ELISA (OD)” value was 1.94 OD.
B28 was tested, and the “ELISA (OD)” value was 1.64 OD.
B29 was tested, and the “ELISA (OD)” value was 1.89 OD.
B30 was tested, and the “ELISA (OD)” value was 0.62 OD.
With B31 the “ELISA (OD)” value was 2.17 OD.
For B32, the “ELISA (OD)” value was 1.96 OD.
B33 was tested, and the “ELISA (OD)” value was 1.97 OD.
B34 was tested, and the “ELISA (OD)” value was 1.91 OD.
In the case of B35, the “ELISA (OD)” value is reported as 2.35 OD.
B36 was tested, and the “ELISA (OD)” value was 2 OD.
For B37, the “ELISA (OD)” value was 0.99 OD.
For B38, the “ELISA (OD)” value was 2.07 OD.
With B39 the “ELISA (OD)” value was 1.94 OD.
